According to the domain aggregation screens of Martell et al. (2025):

Assay: soluble fraction after stress (log2 fold change); higher = more stays soluble; pooled small domains, quantitative proteomics
Conditions: stress: 75 degC
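Also: 20 min heating vs room temperature control held 20 min.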

Sequence	soluble fraction (log2)
HMDYPFQYFNYSHLRILGVPAQLIKAVRKAPTLDAIEQLSGLSEKTKLWLLELATEPKLEDVLFDPGR	-1.98
HMDYRSMSGLQKAALLIMSVGEETAAKLFQLMHDDEIREISQTMANLGTVNATVIERLFVEFADAISS	-1.1
HMDYVKTLGETINVRVAASTDADIYKLLPGGEILNRVGYNEEWTKVMVDGSTFYVYSEYVIQTEPPA	-1.32
HMDYYSILGVDRNATGEDIKKAFKKKAMKYHPDRNPDNKESERKFKEAKEAYDTLSNPQKKSMYDQFGT	0.149
HMEAEDLRDWVGARGIAYTALRPAGIAVVNGRRVDVVSEGAFVNRDDPVEVVRVEGRRIVVKP	-0.0876
HMEAGTEYVERAADYIRSHFQEDLTVSKLALYVGLNRSYLTTVFQNTLHVSPQQFLMRFRMERAAQLLD	0.0997
HMEAGTVTVTHAAVYIRSGPGVSYPIAGKAAKNDTYTVLQKDGDWFQIRLPQGNTGWIAGWLVETGT	-1.69
HMEAISIYPNPTDNELHLSTSVQEVRIYNMYGIEVTRAANTDRLAVSHLPKGVYLVHADGAVLKMIK	-2.7
HMEAISSESIKKMIKSYVSGEDASKPLSDQQIADLLVKEGYMISRRTVAKYRDELGILSSSKRKR	-0.152
HMEAKQMDAWIVSEAKRQGGKIEPAAAYELSRHTATDTSIASQEIAKLLMYVDFKRPVTREDVVELVSA	0.0579
HMEALPELTDRQRQVYEFIEARIAEWGYPPTIREIGQHLGIKSTNGVADHLKALKRKGYLQQ	-0.566
HMEALTPREREVLTLMGQGRSNAEIATLLSIAPRTAKVHVQNILSKLGATNRTEAVSLAVRQGLIS	0.343
HMEASVNAPMPGKIVSVSVSEGQQVNAGDVLLILEAMKMQNEITADAAGTVKAINVNAGQSVKNGDSLVIL	0.832
HMEAVGLTPRQGDVLALLLQGKPNKLIARDLNLSVETVKDHVAAVLRALGVSTRTQAVLAVSQMQQQAAQ	-0.444
HMEAVLTISPGMYSESVSAELVRLGIITNQKEFNSYLVNNGYAERIQTGDFKIKADMSYDEIARIITK	-0.563
HMEAYDTMEDRTTLAPGFAKLDKRERYILHLRFFEGLTQSQIAERVGISQMHVSRLIRRSLEKLREEIGD	-2.67
HMEAYSAEAVRFRIKAMIESETVDDVMSDDKIVERLLADGVDIARRTVAKYREAMNIPSSVKRRRKLKGM	-1.92
HMEDDRMLVWFFRKSIQNGAQSEAEGRPIFEGKDYVHIQQPGERDYIEREAHQGDIGRWPRHWQAYQEGR	0.246
HMEDEAVMQLPLSELKGLSPELLAILNGAGYEKLKDVLDLEREDIERIPGMTPERNEQLVAFLAELTE	0.619
HMEDELFSVARAAFPEYASKIHMNYGSTVQSIARQSGVLTVSETKQLNENQQISYLEYSNGAVVLALA	-0.0187
HMEDELVMERFDINELVKSVVNANELRATQKNLSITYDILDTPLYVWADEYKVEEVVTNYLS	0.00277
HMEDIASESVKRVIRKIIDDEDKKSPLSDQAIVEILAKGEGIVIARRTVAKYREMMGILPSSKRKKH	-1.4
HMEDKIEESLEDNISELFAKTKDKYTLINDLYSKGYTVEELSRFSGLPSGEVRLVISLNSKN	-0.0653
HMEDKPITKEQKQAMFALLREHFSGDEGNAVYTAVLEREGLAPGDKIMSSVYDRLIDGINEAIRQKLEAGA	-0.0206
HMEDNLMIVVQVNGKKRSEIKVSIDASEDQIKQTALAEPNVQKFVEGHTIRKMILVPSKLLNIVV	-1.65
HMEDPKLAQLTEQERKILDLIADGLTNRQIAEKMFLAEKTVKNYVSTILAKMGMSNRSEAAAYVARLEAG	-0.0697

Sequence	soluble fraction (log2)
HMEDPPISQEQRQALFKMAHDHLGKDEGNKAILTLIQSHGLNSTTGMKVSTYNTIMEELVSTIQSLAA	-0.0374
HMEDPVAQEARAAFEVGRLLAAATGPVTLAAIRRAIDLPEERLEEILRRLEESGAVRRARDGWLPG	-0.0316
HMEDVDLFTKAMAALPNRYRDILLLRYSHGYTVEEISDILSMKPENVKKTIQRARKKLGEILEAEG	-1.25
HMEEDPVIAAQRFLNIFRQLHIFTAAKRKEFDELLLKQPASVKGMFASLPGGSVLQEYVNNLEQNAG	-0.564
HMEEFIEHTVEKGEFLSAIIVAYNQHLKSKGFKSITTRDILNANPKLKPELIQVGQKIKIPRRKK	-1.71
HMEEFLSFIADILEVDKNTLTLETSQDDVETWDSLMQLRLLGEIEAKYGVMIPMERISTIKKLNDFYQYIK	-1.12
HMEEIIPIRFLRHRVKRRETIFGLTQKYNITEDQLKRYNTRLYSEALERKMVLQIPVFPEVDED	-2.29
HMEEITLQEQINFIKDMLLNKEKFHLTDVITKKSKIYVVSLFLALLELIRLEEINFRQTQNFSDIIISRI	0.0172
HMEELGKVRPELDGNEIAKVLGITPGPVLGRAYTYLLSVRLDEGPIGPDVARERLLAWWAEQPES	-1.2
HMEELIEMNGVVMEILPDSRYRVTLDNGHKLIAYTGGKMKKNHIRILAGDKVTLELSPYDINNGRITFRHI	-1.66
HMEELTDSELNNLYRELFIARSNASDGVGIIEQKTIKGITYRLSNDNNYLIKELGNKEYIYKNGVWEEYT	-0.155
HMEENNIVIYITGAVKKEGIYEIKENSRISDAIEAAGGLLENANIKDINLAYIIEDGVKIYIPTNEEVNK	-0.409
HMEEPFRIEKKGDIYYISGKTVERLVAMTDLDNDSAVKRLQRTLKRMGVEDALREHGINPGDTVVIGNYEF	-0.201
HMEEQIEVPVQINGKVRSKLTVAPETDEKQIEALALADPKVQQQLEGKRVLKVIVAQKRLVNIVA	-0.161
HMEESTYQWNNFVRDFYASRVSAQYTNKLKVAAILWHHVKNTPQSKIYHDNLVSKYAEEINYFK	-2.8
HMEETEVPPVTGYEQSKASEVLTGKGLIPDIITVADEETAAGYVIRTDPASGEKVPSGTTVKVYVSSGP	0.248
HMEETGFYIKLQDQEVVIFHNDQVTPYEYTGIREEVLPESELEKLREGFFVEDEKELYSVLENLS	0.0782
HMEETLEELGKEYESAFTMYEKLWSYYKKQNYHQVNHKRSERYEILLGFVREYHPEKVEYYRELL	0.378
HMEETLRALAKKISEKVLKSGRSTTLEPMNPYERRIIHSAVSEIEGVSSKSVGEEPYRKVVISSDNP	0.0756
HMEETLRELAVKISKQVIKTGRNSVLEPMNPYERRIIHAVISEIEGVSSKSVGEDPNRKVVIMSTNP	-0.217
HMEEYTVEFVKHKVKRKQTLYTISKLYNVSIDDIIKYNSQIEGFNLSRRMELNIPVKKTLIVKNE	-2.55
HMEFDTEFVLRQAMHAFMQYGYAKTSMQKLKEATHLHPGSIYAAYGNKKGLFLAATEQYQKDR	0.288
HMEFEYFQLRDHLYNLIMHPDKEKLKKDPDYLKLMSMAFSLLEDQNVGKDILEIAIKSIENFK	-0.847
HMEFLDLEIDVDATDGRLLAFLAAKGEVVSQTFNDTIITVRVRMPTGAMGQVHRSALAIRPA	-2.24
HMEFLDQAFLHETMRKVNQDATINLLKKVYEVPQKFIGRKVTVQYDPEDLSRVYVKDLSFPEPVTVYPV	-0.18
HMEFNDLNDDEKAILHIMYNTGEKMTTALAARITNRGRNFASKLLKSLVKKEILEWHGTSKQDRNQYYTLA	-0.0971

Sequence	soluble fraction (log2)
HMEFQVKVIVSSLNIRSGPGTSYDTLGTVTKGDIFTIVETNSDSTWGKMQSGGWISIKDAYVKK	-3.92
HMEFTFTLPRGYIDDTGMIHREGTMRLANAADEILPLKDPRVQQNPGYLTIILLARVITKLGSL	0.33
HMEFTKSPLDEIAGVGPARKRALLAAFGTAKAVSQAALADLEKTPGVNAATARLVYAHFHEK	-0.227
HMEFTVFMNSAGGSKLQVVKTVKELTGLGLKEAKAIVDGSPGPVKEGLSKADAEAMLAKLQEAGADVEL	0.013
HMEFYYSDLVGMIVYDTGGNELGKVQAVLNHGAGDLLEIHGVNLKTSILIPFTKEAVPTVDIAARRIVTDP	0.246
HMEGAEDMNRALALAFLRDNSRSTVAQLAEHLGSSKRSAERLVAQLKDEGVLERQGSPRAGLWIVHI	-0.169
HMEGEVVESPLVGVAYLASGPDKPAFVQVGDSVSKGQTLLIIEAMKVMNEVPAPRDGIVTEILV	0.1
HMEGFSAGQFVRASVDNTAFYLKRPKGDAVADKLLRRGASMKVISASGDYLKVELDSGEVGFVPPVMVE	0.0267
HMEGIWAVFYDGKPINLKSSSLVANYPGPKYKKVSFSNPGHAENLAKKLNAQHNTDKFGVYLLKSGDKFS	-0.113
HMEGMSIYVTVNGDMVHLTGKMSYVFVDVFEHIDFDLSKPQGSGIVTKLNGRDAQYMEEIRSGDMIEIYWR	-0.956
HMEGNLVEIFEDAFGRTMSTMDIEYINQFKRTGYDDEMIVSALREAVKSNALSFRYIERVLENWAHS	-0.881
HMEGTEVTTEPPGAQIEFDGKQFGPTPTRVPGLAAGKQFRITLAGYQEAKPKLKNNPKEGEPLSFTLTAI	0.338
HMEGTVQQDKFDAYKAKFEDAISNDLNTSMAITIIYDLLKDDMNDKTKLALINDFDKVLSLNLTTA	-0.219
HMEGVTVPDVTRISLDEAEELLTSYGLRFEVADRRANSAFPGNYVIDQAPSAEVIVKPNRKIYLTVNAA	-0.238
HMEHDTVLSKVFRRLREAHVPLSLDDIYQGLRKTVNNNSEIREKIVTLQERGLVAEILGPKGGKKYVAKPT	-0.693
HMEHIEVDTSHIAVGSKVKHKAFGLGEITDKGNTYVFVKFDGQAIPKKFQFPGAFTQGFLTK	0.236
HMEHPNNTELTQKLELGTELMQYGDYNYALKVFNNVIDSDPEWSEAWNKRATVYFLMSQFTDSLSDIDRV	0.331
HMEIDMQEGIKTIILMMKEHNITPSEAMKIYKSANGDIHYISKIYNHFKNKGADNFVALMIKMVKPGEFIE	-2
HMEIEETKKNSRTKIPENFDYKLINGLSNEIRAKLELIRPIDLLQASRIDGMTPAALTLVHLWIKKYSG	-1.52
HMEIEIPEELQNKFAEIPELKTAFESLTPGRQRAYVLYFSQPKQSKTREARIEKYIPHILDGKGMN	0.461
HMEIESAHAQVLGVREIAASGATQHWIAFRFSDGHQRELLATPSQADVIFRGQQGVVHFAGDRLTGWIPE	0.104
HMEIEYFDDEELDAYKGRKSDSYTDEEAAQFAEVLYTMRPSEVKDWTASLTLRGISMPDQIKDEAIMLME	-0.148
HMEIGELITLYRKQAGLTIDELSEKANVPKGTLNKIIGGITKAPTLETMRSIAYALGKKLADFDN	-0.503
HMEIHQVEFGGKVISFVLERKPVKNVNLHIKPDMTVMVSANEKVPLDFILGFVKQKAAWILKNIQFFEDV	-3.57
HMEIKDQADAYGKMEPASAAAILSEMTNDLTLVAKILDSMQTSKSALILQNMKPTTAAQVTTKMTAMK	0.0474
